From the supplement of paper PMC10065799, “High-throughput profiling of sequence recognition by tyrosine kinases and SH2 domains using bacterial peptide display” (eLife, 2023)

Assays:
AncSZ = assay: phosphorylation enrichment, bacterial display (enrichment ratio); higher = better substrate or ligand; peptides without Tyr show the background
EPHB1 = EPHB1 (UniProt P54762); assay: as above
EPHB2 = EPHB2 (UniProt P29323); assay: as above
FGFR1 = FGFR1 (UniProt P11362); assay: as above
FGFR3 = FGFR3 (UniProt P22607); assay: as above
Fer (mouse) = assay: as above
Fes = Fes (UniProt P07332); assay: as above
Fyn = Fyn (UniProt P06241); assay: as above
Hck = Hck (UniProt P08631); assay: as above
Jak2 = Jak2 (UniProt O60674); assay: as above
MERTK = MERTK (UniProt Q12866); assay: as above
c-Abl (mouse) = assay: as above
c-Src = assay: as above
Grb2 SH2 = Grb2 SH2 (UniProt P62993); assay: SH2 binding enrichment of the phosphorylated peptide, bacterial display (enrichment ratio); higher = better substrate or ligand; peptides without Tyr show the background
SHP2-C SH2 = assay: as above
c-Src SH2 = assay: as above
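Wherever SH2 binding enrichment of the phosphorylated peptide, bacterial display is given: peptide library displayed on the E. coli surface as eCPX fusions, selected cells deep-sequenced, score is each peptide's frequency after selection divided by its frequency in the input.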
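Wherever phosphorylation enrichment, bacterial display is given: 11-residue human phosphosite peptides and single-mutation variants displayed on the E. coli surface, counted by deep sequencing, each peptide's frequency after selection divided by its frequency in the unselected input library; frequency after pTyr selection over input frequency; kinase dosed for 20-30% of maximal phosphorylation in three min.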

Jak2, sequence (O60674 whole entry, looked up): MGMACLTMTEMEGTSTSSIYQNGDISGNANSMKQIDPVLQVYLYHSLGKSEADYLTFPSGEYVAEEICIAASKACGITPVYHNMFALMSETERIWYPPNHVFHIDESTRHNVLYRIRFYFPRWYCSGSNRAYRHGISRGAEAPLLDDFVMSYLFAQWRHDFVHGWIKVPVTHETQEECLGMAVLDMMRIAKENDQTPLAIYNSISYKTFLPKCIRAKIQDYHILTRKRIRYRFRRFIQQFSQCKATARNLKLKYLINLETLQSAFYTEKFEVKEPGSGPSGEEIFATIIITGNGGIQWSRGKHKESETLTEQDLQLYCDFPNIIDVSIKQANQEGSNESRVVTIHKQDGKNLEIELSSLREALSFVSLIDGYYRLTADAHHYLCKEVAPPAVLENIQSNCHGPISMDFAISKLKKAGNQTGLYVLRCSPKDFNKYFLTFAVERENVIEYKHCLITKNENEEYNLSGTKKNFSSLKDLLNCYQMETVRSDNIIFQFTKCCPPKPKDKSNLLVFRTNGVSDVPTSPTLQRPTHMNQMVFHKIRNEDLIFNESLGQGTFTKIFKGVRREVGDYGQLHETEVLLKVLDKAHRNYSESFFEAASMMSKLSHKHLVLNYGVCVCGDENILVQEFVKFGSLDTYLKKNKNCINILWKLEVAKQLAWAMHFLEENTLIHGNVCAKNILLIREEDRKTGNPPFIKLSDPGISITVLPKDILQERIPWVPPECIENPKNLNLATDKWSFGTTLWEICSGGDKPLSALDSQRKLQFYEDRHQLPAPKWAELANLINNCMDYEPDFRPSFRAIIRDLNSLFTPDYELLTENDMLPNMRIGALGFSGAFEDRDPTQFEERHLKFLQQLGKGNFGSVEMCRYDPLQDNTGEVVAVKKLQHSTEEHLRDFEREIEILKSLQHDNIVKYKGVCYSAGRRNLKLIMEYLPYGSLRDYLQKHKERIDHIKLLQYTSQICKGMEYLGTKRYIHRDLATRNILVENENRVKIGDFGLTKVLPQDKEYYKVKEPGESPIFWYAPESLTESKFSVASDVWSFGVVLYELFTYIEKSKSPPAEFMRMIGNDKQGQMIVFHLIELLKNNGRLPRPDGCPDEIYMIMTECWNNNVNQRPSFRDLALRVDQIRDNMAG
Fyn, sequence (P06241 whole entry, looked up): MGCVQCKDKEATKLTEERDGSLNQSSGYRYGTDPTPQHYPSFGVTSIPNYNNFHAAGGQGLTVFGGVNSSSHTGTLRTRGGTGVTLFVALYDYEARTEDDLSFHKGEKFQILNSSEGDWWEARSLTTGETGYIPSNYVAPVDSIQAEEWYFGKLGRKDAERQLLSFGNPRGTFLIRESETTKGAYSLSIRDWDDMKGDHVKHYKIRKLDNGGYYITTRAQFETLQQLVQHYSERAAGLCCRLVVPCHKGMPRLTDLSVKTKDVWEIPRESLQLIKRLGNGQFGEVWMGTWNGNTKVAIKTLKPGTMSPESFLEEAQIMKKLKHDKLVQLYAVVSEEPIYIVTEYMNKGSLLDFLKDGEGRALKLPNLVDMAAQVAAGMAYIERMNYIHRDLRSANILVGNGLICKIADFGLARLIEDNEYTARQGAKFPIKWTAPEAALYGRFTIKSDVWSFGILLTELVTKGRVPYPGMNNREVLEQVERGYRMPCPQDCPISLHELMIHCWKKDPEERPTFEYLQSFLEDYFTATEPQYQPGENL
FGFR1, sequence (P11362 whole entry, looked up): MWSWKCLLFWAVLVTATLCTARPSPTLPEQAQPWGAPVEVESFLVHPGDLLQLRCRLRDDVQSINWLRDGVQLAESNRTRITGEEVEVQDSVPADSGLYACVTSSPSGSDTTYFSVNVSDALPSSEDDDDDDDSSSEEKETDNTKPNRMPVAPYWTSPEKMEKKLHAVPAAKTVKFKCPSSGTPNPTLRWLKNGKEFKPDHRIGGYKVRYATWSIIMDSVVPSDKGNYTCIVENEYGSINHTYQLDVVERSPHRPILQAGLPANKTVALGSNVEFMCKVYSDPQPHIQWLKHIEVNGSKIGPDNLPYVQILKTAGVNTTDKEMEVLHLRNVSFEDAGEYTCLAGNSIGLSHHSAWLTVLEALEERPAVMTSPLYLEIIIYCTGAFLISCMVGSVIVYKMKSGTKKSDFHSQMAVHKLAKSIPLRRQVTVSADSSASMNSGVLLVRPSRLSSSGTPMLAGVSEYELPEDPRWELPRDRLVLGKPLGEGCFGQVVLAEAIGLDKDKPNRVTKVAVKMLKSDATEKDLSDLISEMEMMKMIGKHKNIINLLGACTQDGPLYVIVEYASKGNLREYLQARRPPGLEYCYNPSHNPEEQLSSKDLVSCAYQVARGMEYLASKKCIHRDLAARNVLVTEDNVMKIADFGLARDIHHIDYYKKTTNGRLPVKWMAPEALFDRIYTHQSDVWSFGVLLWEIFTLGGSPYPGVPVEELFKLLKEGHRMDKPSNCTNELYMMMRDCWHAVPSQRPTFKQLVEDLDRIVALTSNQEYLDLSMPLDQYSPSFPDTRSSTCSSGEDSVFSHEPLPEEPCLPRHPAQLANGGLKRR
FGFR3, sequence (P22607 whole entry, looked up): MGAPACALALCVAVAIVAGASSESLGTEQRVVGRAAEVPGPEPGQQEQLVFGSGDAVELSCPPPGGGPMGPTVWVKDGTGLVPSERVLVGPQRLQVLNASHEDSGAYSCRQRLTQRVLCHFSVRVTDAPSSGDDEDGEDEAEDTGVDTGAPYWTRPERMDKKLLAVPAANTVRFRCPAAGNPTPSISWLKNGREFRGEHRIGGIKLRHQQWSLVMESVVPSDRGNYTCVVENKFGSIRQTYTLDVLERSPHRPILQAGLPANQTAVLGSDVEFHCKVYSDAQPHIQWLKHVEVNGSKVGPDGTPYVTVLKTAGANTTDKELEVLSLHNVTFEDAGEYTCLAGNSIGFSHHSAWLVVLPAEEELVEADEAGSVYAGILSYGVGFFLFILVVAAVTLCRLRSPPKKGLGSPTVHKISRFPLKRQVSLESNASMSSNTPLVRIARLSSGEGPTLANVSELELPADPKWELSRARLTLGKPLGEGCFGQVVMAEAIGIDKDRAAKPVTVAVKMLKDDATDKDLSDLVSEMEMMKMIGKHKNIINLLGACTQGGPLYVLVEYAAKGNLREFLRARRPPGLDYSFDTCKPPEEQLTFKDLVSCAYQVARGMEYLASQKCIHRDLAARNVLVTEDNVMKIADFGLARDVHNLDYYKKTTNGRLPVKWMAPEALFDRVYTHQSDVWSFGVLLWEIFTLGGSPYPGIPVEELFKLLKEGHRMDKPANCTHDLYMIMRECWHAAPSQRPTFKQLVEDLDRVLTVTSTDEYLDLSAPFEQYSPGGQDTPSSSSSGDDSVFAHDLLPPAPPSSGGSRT
MERTK, sequence (Q12866 whole entry, looked up): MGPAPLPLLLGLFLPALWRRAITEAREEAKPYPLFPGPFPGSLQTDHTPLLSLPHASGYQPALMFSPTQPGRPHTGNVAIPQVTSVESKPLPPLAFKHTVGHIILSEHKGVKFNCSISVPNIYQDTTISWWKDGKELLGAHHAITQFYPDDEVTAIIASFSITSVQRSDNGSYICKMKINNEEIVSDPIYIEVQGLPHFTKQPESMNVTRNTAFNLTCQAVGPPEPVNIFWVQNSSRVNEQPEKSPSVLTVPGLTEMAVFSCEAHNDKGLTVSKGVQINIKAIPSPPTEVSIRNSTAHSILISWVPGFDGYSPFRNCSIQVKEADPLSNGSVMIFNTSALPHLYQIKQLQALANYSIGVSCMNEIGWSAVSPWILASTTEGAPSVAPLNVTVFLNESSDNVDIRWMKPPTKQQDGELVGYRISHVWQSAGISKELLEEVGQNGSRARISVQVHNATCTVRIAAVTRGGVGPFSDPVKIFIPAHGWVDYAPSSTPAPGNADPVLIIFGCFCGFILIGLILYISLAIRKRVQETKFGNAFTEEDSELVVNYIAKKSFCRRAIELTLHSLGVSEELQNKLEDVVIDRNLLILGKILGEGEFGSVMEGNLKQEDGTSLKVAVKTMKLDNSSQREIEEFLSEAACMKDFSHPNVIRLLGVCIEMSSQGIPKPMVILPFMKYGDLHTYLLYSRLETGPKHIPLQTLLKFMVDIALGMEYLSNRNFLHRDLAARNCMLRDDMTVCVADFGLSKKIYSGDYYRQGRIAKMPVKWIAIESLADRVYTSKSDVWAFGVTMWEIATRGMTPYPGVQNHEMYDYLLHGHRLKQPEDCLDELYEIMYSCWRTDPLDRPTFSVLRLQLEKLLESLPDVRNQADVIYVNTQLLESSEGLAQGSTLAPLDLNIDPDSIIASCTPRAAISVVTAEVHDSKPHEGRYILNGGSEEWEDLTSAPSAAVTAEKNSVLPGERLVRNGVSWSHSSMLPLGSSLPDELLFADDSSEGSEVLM
Hck, sequence (P08631 whole entry, looked up): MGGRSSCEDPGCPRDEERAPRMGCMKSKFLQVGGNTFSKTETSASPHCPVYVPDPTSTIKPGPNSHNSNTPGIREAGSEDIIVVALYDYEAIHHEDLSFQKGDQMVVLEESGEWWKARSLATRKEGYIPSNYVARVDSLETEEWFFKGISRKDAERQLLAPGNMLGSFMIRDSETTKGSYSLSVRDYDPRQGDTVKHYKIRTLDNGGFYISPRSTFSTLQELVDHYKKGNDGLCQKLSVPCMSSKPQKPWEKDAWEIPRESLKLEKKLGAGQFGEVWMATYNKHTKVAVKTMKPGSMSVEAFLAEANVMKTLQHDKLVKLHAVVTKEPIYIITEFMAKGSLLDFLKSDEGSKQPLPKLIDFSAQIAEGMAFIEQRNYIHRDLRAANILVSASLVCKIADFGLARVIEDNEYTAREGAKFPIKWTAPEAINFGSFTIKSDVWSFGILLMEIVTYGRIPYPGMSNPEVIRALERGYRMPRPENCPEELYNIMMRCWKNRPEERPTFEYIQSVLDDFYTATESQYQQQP

Row | Sequence | SH2 binding enrichment (Grb2 SH2) | SH2 binding enrichment (SHP2-C SH2) | SH2 binding enrichment (c-Src SH2) | phosphorylation enrichment (AncSZ) | phosphorylation enrichment (EPHB1) | phosphorylation enrichment (EPHB2) | phosphorylation enrichment (FGFR1) | phosphorylation enrichment (FGFR3) | phosphorylation enrichment (Fer (mouse)) | phosphorylation enrichment (Fes) | phosphorylation enrichment (Fyn) | phosphorylation enrichment (Hck) | phosphorylation enrichment (Jak2) | phosphorylation enrichment (MERTK) | phosphorylation enrichment (c-Abl (mouse)) | phosphorylation enrichment (c-Src)
1 | SCTFTCLLGDR [ETHE1_Y38_Y38C] | 1.01 | 0.98 | 0.945 | 0.916 | 0.45 | 0.536 | 0.488 | 0.669 | 0.458 | 1.03 | 0.458 | 0.414 | 0.84 | 0.465 | 0.737 | 0.387
2 | SDPIIYTLENV [ADGRE1_Y534_I539V] | 0.88 | 0.682 | 0.554 | 1.1 | 0.5 | 0.576 | 0.577 | 0.663 | 5.1 | 1.38 | 7 | 1.61 | 0.945 | 1.09 | 0.723 | 4.92
3 | SDQPDYDSVAS [GIT2_Y392_N387S] | 0.783 | 0.735 | 0.526 | 1.29 | 0.655 | 0.726 | 0.625 | 0.693 | 0.739 | 1.27 | 0.565 | 0.594 | 1.09 | 0.499 | 0.729 | 0.525
4 | SEEVNYATLTF [CLEC12B_Y7_T6N] | 0.762 | 3.03 | 0.391 | 1.1 | 1.98 | 1.46 | 1.25 | 1.4 | 1.45 | 1.37 | 1.33 | 1.66 | 1.12 | 0.905 | 1.38 | 1.41
5 | SFNNKYGMVAQ [APOB_Y276_K273N_YF] | 0.852 | 0.68 | 0.435 | 0.542 | 0.332 | 0.504 | 0.4 | 0.469 | 0.399 | 0.51 | 0.395 | 0.422 | 0.509 | 0.431 | 0.462 | 0.384
6 | SGADSYEMEED [EGFR_Y316_C311S] | 0.979 | 0.701 | 0.728 | 1.29 | 0.574 | 0.585 | 0.822 | 0.871 | 0.52 | 1.16 | 0.625 | 0.668 | 1.12 | 0.722 | 0.749 | 0.561
7 | SGDVQYRSSVR [FREM2_Y2158_T2153S] | 0.812 | 0.883 | 0.514 | 0.442 | 0.472 | 0.332 | 0.378 | 0.432 | 0.377 | 0.608 | 0.375 | 0.378 | 0.396 | 0.348 | 0.481 | 0.364

Now from value to sequence, other results behind:

Row | SH2 binding enrichment (Grb2 SH2) | SH2 binding enrichment (SHP2-C SH2) | SH2 binding enrichment (c-Src SH2) | Sequence | phosphorylation enrichment (AncSZ) | phosphorylation enrichment (EPHB1) | phosphorylation enrichment (EPHB2) | phosphorylation enrichment (FGFR1) | phosphorylation enrichment (FGFR3) | phosphorylation enrichment (Fer (mouse)) | phosphorylation enrichment (Fes) | phosphorylation enrichment (Fyn) | phosphorylation enrichment (Hck) | phosphorylation enrichment (Jak2) | phosphorylation enrichment (MERTK) | phosphorylation enrichment (c-Abl (mouse)) | phosphorylation enrichment (c-Src)
8 | 0.869 | 0.798 | 0.535 | SADIAYNFRHG [PAH_Y166_F161S_YF] | 0.587 | 0.447 | 0.33 | 0.433 | 0.469 | 0.348 | 0.673 | 0.416 | 0.423 | 0.574 | 0.374 | 0.789 | 0.457
9 | 0.777 | 0.553 | 0.617 | SDVNKYSTAFG [GJB3_Y16_G12D] | 0.521 | 0.467 | 0.387 | 0.348 | 0.459 | 0.462 | 0.67 | 0.42 | 0.386 | 0.451 | 0.393 | 0.509 | 0.361
10 | 0.755 | 0.535 | 0.723 | SDYSRYARTSI [TERT_Y949_S948R] | 0.59 | 0.434 | 0.495 | 0.428 | 0.351 | 0.388 | 0.581 | 0.443 | 0.428 | 0.549 | 0.444 | 0.46 | 0.444
11 | 1.01 | 0.971 | 1.3 | SDYYAYSPVQE [H6PD_Y449_R453Q] | 6.17 | 16.4 | 21.6 | 15.8 | 14.9 | 10.7 | 0.952 | 8.25 | 6.3 | 9.08 | 9.08 | 8.16 | 5.44
12 | 0.767 | 0.623 | 0.678 | SESSYYKSLNL [NGEF_Y289_A286S] | 0.876 | 0.503 | 0.57 | 1.01 | 0.841 | 0.624 | 0.756 | 0.657 | 0.627 | 0.852 | 0.913 | 0.561 | 0.586
13 | 0.979 | 0.769 | 0.572 | SGDDGYAKDAQ [TENM4_Y1530_K1535Q] | 0.818 | 0.446 | 0.394 | 0.45 | 0.615 | 0.557 | 0.866 | 0.508 | 0.493 | 0.832 | 0.418 | 0.575 | 0.379
14 | 0.765 | 0.765 | 0.401 | SGGMDYGMVGG [TNRC6B_Y1382] | 0.571 | 0.471 | 0.806 | 0.404 | 0.494 | 0.389 | 0.574 | 2 | 0.702 | 0.517 | 0.384 | 0.52 | 1.95
15 | 0.787 | 0.505 | 0.487 | SGPRRYTMAAL [TTR_Y125_I127M] | 0.677 | 0.396 | 0.466 | 0.423 | 0.459 | 0.383 | 0.611 | 0.416 | 0.488 | 0.601 | 0.44 | 0.555 | 0.533
16 | 0.627 | 0.52 | 0.564 | SGSFRYGSSFE [SELE_Y390_C394F] | 0.692 | 0.463 | 0.438 | 0.419 | 0.528 | 0.484 | 0.686 | 0.526 | 0.389 | 0.629 | 0.426 | 0.489 | 0.425
